Experimental data published in patent US20050209305A1.

Target: Candida albicans cell surface hemoglobin receptor (Candida albicans)
Test: cell-based or functional assay

## hemoglobin
  Renilla luciferase activity driven by the CaHMX1 promoter in C. albicans strain CAMP Ki-29, iron-sufficient medium, within 2.5 min of Hb addition: > 10 fold
